# Measured values taken from IntAct's records for PubMed 35850301.
# B1: Maternal protein pumilio (Drosophila melanogaster (Fruit fly)), P25822 (parent)
# chain: MKFLGGNDDRNGRGGVGVGTDAIVGSRGGVSQDAADAAGAAAAAAVGYVFQQRPSPGGVGVGVGGVGGGVPGVGAVGSTLHEAAAAEYAAHFAQKQQQTRWACGDDGHGIDNPDKWKYNPPMNPANAAPGGPPGNGSNGGPGAIGTIGMGSGLGGGGGGGAGGGNNGGSGTNGGLHHQSMAAAAANMAAMQQAAALAKHNHMISQAAAAVAAQQQHQHPHQQHPQQQQQQQQAQNQGHPHHLMGGGNGLGNGNGLGIQHPGQQQQQQQQQQQQQHPGQYNANLLNHAAALGHMSSYAQSGGSMYDHHGGAMHPGMNGGMPKQQPLGPPGAGGPQDYVYMGGQTTVPMGAAMMPPQNQYMNSSAVAAANRNAAITTSTAKKLWEKSDGKGVSSSTPGGPLHPLQIPGIGDPSSVWKDHTWSTQGENILVPPPSRAYAHGGASDTSNSGNAGILSPRDSTCAKVVEYVFSGSPTNKDSSLSGLEPHLRNLKFDDNDKSRDDKEKANSPFDTNGLKKDDQVTNSNGVVNGIDDDKGFNRTPGSRQPSPAEESQPRPPNLLFPPLPFNHMLMDHGQGMGGGLGGVVGSGNGVGGGSGGGGAGGAYAAHQQMAAQMSQLQPPMMNGVGGGMPMAAQSPMLNHQAAGPNHMESPGNLLQQQNFDVQQLFRSQNPGLAAVATNAAAAAAAAAAATSAASAAAAVGAPPVPNGSLQQSQQQQQQQQQQQQQQQMHMAAASQQFLAAQQQAQNAAYAAQQATSYVINPGQEAAPYMGMIAAAQMPYYGVAPWGMYPGNLIPQQGTQPRRPLTPSQQGAENQPYQVIPAFLDHTGSLLMGGPRTGTPMRLVSPAPVLVPPGATRAGPPPPQGPQLYQPQPQTAQQNLYSQQNGSSVGGLALNTSSLTGRRDSFDRSTSAFSPSTMDYTSSGVAAAANAVNSTVAQAAAAAAAAAAARGKWPGAMSGAASGAYGALGAGNASASPLGAPITPPPSAQSCLLGSRAPGAESRQRQQQQQQLAAVGLPATAAAAQAAVAAAANNMFGSNSSIFSNPLAIPGTAAVAAAAAAAAAANSRQVAATAAAAAAVAAAAGGVGGAPQPGRSRLLEDFRNQRYPNLQLRDLANHIVEFSQDQHGSRFIQQKLERATAAEKQMVFSEILAAAYSLMTDVFGNYVIQKFFEFGTPEQKNTLGMQVKGHVLQLALQMYGCRVIQKALESISPEQQQEIVHELDGHVLKCVKDQNGNHVVQKCIECVDPVALQFIINAFKGQVYSLSTHPYGCRVIQRILEHCTAEQTTPILDELHEHTEQLIQDQYGNYVIQHVLEHGKQEDKSILINSVRGKVLVLSQHKFASNVVEKCVTHATRGERTGLIDEVCTFNDNALHVMMKDQYANYVVQKMIDVSEPTQLKKLMTKIRPHMAALRKYTYGKHINAKLEKYYMKITNPITVGTGAGGVPAASSAAAVSSGATSASVTACTSGSSTTTTSTTNSLASPTICSVQENGSAMVVEPSSPDASESSSSVVSGAVNSSLGPIGPPTNGNVVL
# partner: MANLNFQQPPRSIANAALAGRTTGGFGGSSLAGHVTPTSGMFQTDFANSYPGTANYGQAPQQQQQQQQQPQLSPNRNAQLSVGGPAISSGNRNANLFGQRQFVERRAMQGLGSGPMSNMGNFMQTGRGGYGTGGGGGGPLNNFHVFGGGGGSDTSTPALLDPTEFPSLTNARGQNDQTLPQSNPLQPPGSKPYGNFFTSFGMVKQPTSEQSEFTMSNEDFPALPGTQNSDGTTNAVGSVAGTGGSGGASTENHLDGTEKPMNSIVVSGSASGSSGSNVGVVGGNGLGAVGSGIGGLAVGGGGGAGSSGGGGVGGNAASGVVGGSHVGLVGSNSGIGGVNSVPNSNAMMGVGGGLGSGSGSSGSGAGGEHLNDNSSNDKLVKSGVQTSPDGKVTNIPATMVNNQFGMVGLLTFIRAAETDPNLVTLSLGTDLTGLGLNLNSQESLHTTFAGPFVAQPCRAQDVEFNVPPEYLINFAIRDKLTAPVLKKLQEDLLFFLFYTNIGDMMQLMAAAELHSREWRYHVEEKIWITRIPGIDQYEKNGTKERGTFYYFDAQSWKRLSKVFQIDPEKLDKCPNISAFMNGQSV
# Variants of: B1
# Conditions: with rga_drome Rga
row,Variant,effect of a mutation on the interaction
1,F1033A;F1040A,decreasing interaction strength
2,F1040A,with no effect
3,F1033A,with no effect

# Variants of: B1
# Conditions: with rga_drome Rga
# Remark: another data set of the same source
row,Variant,effect of a mutation on the interaction
1,F1033A;F1040A,decreasing interaction strength
